{
  "source": "the DeepSol protein solubility set",
  "data": [
    {"test": "soluble on expression in E. coli; label from the status in PepcDB or PDB records", "values": [
      {"sequence": "MGSDKIHHHHHHMMYKHVALLVRQDDMSHEEFVDYWQANHTPIAKDIEGVVRYQQVLPTEPAHAEFDGLAELYFETLEDLHEALGSPGSRDYDPTKEIAAKAREDVNNFLAVEERPRIIGEEIVQKDEVDGDTDGLYKHSAFLVRQDDMTHEEFVDYWQTNHTPIAREIEGVVKYNTVIPTDPENAEFDGVAELYFDDIEKLYDALGSEGLRDYAPDRGKAKAAREDVNNFLAIDERPRFIGQEQLVKDEG", "soluble on expression in E. coli": "not soluble"},
      {"sequence": "GAMSSKNEWRKSAIANTLLYLRLKNIYVSADDFVEEQNVYVLPKNLLKKFIEISDVKIQVAAFIYGMSAKDHPKVKEIKTVVLVPQLGHVGSVQISNIPDIGDLPDTEGLELLGWIHTQTEELKFMAASEVATHSKLFADKKRDCIDISIFSTPGSVSLSAYNLTDEGYQWGEENKDIMNVLSEGFEPTFSTHAQLLLSDRITGNFIIPSGNVWNYTFMGTAFNQEGDYNFKYGIPLEFYNEMHRPVHFLQFSE", "soluble on expression in E. coli": "soluble"},
      {"sequence": "MSLAKGIMLHEVGEQVDQYLLIKSSTKGIASNGKPFLTLMLQDQSGDIEAKLWDAKQSDEVTYAPQTIVKVVGDVHHYRGRTQLKLRNIRPVSEQENVNIDDFLETAPIPKNEMMDTITQYIFEMKNPNIQRITRFLVKKHEAEFMDYPAATKNHHEFVSGLAYHVVSMLNLAKAIADLYPSLDRDLLYAGVILHDLGKVKELSGPVSTSYTVEGNLLGHISIMVTELSKAAEELQIDSEEVLILQHLILSHHGKAEWGSPKPPMVKEAEILHYIDNLDAKMNMMDRALERVKPGEYTERVFALENRSFYKPTFHKEGGSHHHHHH", "soluble on expression in E. coli": "soluble"},
      {"sequence": "MAYFALGLATATKNRDGKIIEAFFPTPILAPSDALVAALAPIAGYQEGNQALDITAAQSAQLAAVFAAHQQAASAAFADKAANAKQPLVLVILASDDKPQSVAEGYLKLQLISHRLVKPHGTVLDGIFGLLHNIAWTNEGPIDLPELAERQIEARLAGRVLTVDCVDKFPKMVDYVVPAGIRIADTSRVRLGAHVGEGTTVMHEGFINFNAGTTGVSMVEGRISAGVVVGNGSDIGGGASIMGTLSGGGKVVVSIGENSLLGANAGLGFPLGDRCTVESGLYVTAGTKVRTLDKDGNQVDIVKARDLAGVSDLLFRRNSLTGQIECLANKSAVELNSELHKNN", "soluble on expression in E. coli": "not soluble"},
      {"sequence": "TNTEAFCTSCHEMQSNVFEELTRTVHYTNRSGVRAGCPDCHVPHEWTDKIARKMQASKEVWGHLFGTIDTRRKFLDNRLRLAEHEWARLKANDSLECRNCHSEVAMDFTRQTDRAAQIHTQYLIQTEGYTCIDCHKGIAHEL", "soluble on expression in E. coli": "not soluble"},
      {"sequence": "GSMPAIMTMLADHAARQLLDFSQKLDINLLDNVVNCLYHGEGAQQRMAQEVLTHLKEHPDAWTRVDTILEFSQNMNTKYYGLQILENVIKTRWKILPRNQCEGIKKYVVGLIIKTSSDPTCVEKEKVYIGKLNMILVQILKQEWPKHWPTFISDIVGASRTSESLCQNNMVILKLLSEEVFDFSSGQITQVKAKHLKDSMCNEFSQIFQLCQFVMENSQNAPLVHATLETLLRFLNWIPLGYIFETKLISTLIYKFLNVPMFRNVSLKCLTEIAGVSVSQYEEQFETLFTLTMMQLKQMLPLNTNIRLAYSNGKDDEQNFIQNLSLFLCTFLKEHGQLLEKRLNLREALMEALHYMLLVSEVEETEIFKICLEYWNHLAAELYRESPFSTSASPLLSGSQHFDIPPRRQLYLTVLSKVRLLMVSRMAKPEEVLVVENDQGEVVREFMKDTDSINLYKNMRETLVYLTHLDYVDTEIIMTKKLQNQVNGTEWSWKNLNTLCWAIGSISGAMHEEDEKRFLVTVIKDLLGLCEQKRGKDNKAIIASNIMYIVGQYPRFLRAHWKFLKTVVNKLFEFMHETHDGVQDMACDTFIKIAQKCRRHFVQVQVGEVMPFIDEILNNINTIICDLQPQQVHTFYEAVGYMIGAQTDQTVQEHLIEKYMLLPNQVWDSIIQQATKNVDILKDPETVKQLGSILKTNVRACKAVGHPFVIQLGRIYLDMLNVYKCLSENISAAIQANGEMVTKQPLIRSMRTVKRETLKLISGWVSRSNDPQMVAENFVPPLLDAVLIDYQRNVPAAREPEVLSTMAIIVNKLGGHITAEIPQIFDAVFECTLNMINKDFEEYPEHRTNFFLLLQAVNSHCFPAFLAIPPAQFKLVLDSIIWAFKHTMRNVADTGLQILFTLLQNVAQEEAAAQSFYQTYFCDILQHIFSVVTDTSHTAGLTMHASILAYMFNLVEEGKISTPLNPGNPVNNQMFIQDYVANLLKSAFPHLQDAQVKLFVTGLFSLNQDIPAFKEHLRDFLVQIKEFAGEDTSDLFLEERETALRQAQEEKHKLQMSVPGILNPHEIPEEMCD", "soluble on expression in E. coli": "soluble"},
      {"sequence": "MGVDRQILVEGDNVTKPKNGQTVTCHYVLTLENGKKIDSSRDRGTPFKFKIGKGEVIKGWDQGVAQMSVGEKSKLTISADLGYGPRGVPPQIPANATLVFEVELLGVN", "soluble on expression in E. coli": "soluble"}
    ]}
  ]
}
